Test results published in US20150010589A1.

Key:
[1] = molecular target: soluble collagen type I (pepsin-digested, non-fibrillar, triple helical; BD Biosciences) (human) (UniProt P02452); test: SPR, saliva injected over immobilized collagen type I, 120 sec at 20 µl/min
[2] = molecular target: soluble collagen type III (pepsin-digested, non-fibrillar; BD Biosciences) (human) (UniProt P02461); test: SPR, saliva injected over immobilized collagen type III, 120 sec at 20 µl/min
[3] = molecular target: collagen-related peptide (CRP) GCO-(GPO)10-GCOG-NH2, cross-linked; test: SPR, Aegyptin over immobilized cross-linked (GPO)10 peptide, two-state model
[4] = molecular target: collagen-related peptide (CRP) GCO-(GPO)10-GCOG-NH2, cross-linked; test: SPR, Aegyptin over immobilized cross-linked (GPO)10 peptide, two-state model; Ka1
[5] = molecular target: collagen-related peptide (CRP) GCO-(GPO)10-GCOG-NH2, cross-linked; test: SPR, Aegyptin over immobilized cross-linked (GPO)10 peptide, two-state model; Kd1
[6] = molecular target: collagen-related peptide (CRP) GCO-(GPO)10-GCOG-NH2, cross-linked; test: SPR, Aegyptin over immobilized cross-linked (GPO)10, two-state binding model (the table prints 5.101 µM)
[7] = molecular target: horse tendon insoluble fibrillar Horm collagen (Chrono-Log), collagen I (95%) and III (5%) (horse); test: cell-based or functional assay

soluble collagen type I (pepsin-digested, non-fibrillar, triple helical; BD Biosciences) (human), sequence (P02452 179-1192 limits assumed, chain 1 of 2): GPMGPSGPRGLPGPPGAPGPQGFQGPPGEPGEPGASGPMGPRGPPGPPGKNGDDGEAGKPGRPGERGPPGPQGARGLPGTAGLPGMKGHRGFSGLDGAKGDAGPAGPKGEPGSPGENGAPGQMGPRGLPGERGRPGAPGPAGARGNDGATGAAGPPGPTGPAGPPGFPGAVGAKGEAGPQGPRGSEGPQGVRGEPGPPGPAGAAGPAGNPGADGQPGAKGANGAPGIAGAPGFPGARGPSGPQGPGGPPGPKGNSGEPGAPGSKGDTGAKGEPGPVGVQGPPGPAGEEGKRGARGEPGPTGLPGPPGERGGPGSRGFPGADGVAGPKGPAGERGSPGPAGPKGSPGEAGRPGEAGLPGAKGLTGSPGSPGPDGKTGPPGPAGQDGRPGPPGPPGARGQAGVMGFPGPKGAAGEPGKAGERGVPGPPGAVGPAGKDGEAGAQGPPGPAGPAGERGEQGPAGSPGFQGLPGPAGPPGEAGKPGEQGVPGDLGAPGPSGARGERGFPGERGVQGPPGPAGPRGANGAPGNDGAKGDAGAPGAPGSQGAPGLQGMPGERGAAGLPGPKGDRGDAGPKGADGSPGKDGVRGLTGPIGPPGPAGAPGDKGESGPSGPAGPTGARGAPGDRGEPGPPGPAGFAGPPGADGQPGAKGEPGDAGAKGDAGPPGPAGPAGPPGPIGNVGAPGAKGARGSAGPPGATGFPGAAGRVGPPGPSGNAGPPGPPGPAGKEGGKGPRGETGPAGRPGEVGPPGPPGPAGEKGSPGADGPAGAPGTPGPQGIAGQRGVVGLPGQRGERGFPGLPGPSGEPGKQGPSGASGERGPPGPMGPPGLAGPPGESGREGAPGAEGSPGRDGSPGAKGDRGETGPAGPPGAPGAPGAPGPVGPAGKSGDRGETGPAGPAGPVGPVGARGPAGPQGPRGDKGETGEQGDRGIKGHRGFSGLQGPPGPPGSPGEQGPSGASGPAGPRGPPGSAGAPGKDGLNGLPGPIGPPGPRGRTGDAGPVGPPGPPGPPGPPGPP
soluble collagen type I (pepsin-digested, non-fibrillar, triple helical; BD Biosciences) (human), sequence (P08123 91-1104 limits assumed, chain 2 of 2, further chain): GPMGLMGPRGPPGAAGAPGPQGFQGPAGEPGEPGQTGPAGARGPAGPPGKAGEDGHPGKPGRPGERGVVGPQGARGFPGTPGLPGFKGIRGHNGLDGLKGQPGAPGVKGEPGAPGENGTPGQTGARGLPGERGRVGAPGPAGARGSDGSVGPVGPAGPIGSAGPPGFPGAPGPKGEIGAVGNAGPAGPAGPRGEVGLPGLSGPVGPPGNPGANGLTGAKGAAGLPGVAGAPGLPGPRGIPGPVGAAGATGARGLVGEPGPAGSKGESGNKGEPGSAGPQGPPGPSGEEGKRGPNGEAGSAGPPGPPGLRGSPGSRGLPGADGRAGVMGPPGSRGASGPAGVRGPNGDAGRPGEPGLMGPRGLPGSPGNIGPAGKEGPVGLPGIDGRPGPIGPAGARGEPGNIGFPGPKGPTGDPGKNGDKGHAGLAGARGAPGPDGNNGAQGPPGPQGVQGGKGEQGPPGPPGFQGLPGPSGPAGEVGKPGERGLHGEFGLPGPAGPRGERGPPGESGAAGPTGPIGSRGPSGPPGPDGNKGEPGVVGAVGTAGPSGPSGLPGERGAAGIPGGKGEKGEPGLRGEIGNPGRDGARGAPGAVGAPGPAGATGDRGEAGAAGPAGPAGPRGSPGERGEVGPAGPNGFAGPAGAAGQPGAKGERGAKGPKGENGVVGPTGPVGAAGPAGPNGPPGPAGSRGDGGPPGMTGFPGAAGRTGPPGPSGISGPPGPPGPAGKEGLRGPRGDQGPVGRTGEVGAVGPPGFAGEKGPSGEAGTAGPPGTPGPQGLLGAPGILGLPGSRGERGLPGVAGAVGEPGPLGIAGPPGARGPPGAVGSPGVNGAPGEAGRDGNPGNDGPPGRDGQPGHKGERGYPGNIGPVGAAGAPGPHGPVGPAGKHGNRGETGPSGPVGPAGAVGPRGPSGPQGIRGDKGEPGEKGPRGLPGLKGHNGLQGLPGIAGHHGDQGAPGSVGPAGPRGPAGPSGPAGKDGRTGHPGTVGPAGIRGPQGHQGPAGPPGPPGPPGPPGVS
soluble collagen type III (pepsin-digested, non-fibrillar; BD Biosciences) (human), sequence (P02461 168-1196 limits assumed): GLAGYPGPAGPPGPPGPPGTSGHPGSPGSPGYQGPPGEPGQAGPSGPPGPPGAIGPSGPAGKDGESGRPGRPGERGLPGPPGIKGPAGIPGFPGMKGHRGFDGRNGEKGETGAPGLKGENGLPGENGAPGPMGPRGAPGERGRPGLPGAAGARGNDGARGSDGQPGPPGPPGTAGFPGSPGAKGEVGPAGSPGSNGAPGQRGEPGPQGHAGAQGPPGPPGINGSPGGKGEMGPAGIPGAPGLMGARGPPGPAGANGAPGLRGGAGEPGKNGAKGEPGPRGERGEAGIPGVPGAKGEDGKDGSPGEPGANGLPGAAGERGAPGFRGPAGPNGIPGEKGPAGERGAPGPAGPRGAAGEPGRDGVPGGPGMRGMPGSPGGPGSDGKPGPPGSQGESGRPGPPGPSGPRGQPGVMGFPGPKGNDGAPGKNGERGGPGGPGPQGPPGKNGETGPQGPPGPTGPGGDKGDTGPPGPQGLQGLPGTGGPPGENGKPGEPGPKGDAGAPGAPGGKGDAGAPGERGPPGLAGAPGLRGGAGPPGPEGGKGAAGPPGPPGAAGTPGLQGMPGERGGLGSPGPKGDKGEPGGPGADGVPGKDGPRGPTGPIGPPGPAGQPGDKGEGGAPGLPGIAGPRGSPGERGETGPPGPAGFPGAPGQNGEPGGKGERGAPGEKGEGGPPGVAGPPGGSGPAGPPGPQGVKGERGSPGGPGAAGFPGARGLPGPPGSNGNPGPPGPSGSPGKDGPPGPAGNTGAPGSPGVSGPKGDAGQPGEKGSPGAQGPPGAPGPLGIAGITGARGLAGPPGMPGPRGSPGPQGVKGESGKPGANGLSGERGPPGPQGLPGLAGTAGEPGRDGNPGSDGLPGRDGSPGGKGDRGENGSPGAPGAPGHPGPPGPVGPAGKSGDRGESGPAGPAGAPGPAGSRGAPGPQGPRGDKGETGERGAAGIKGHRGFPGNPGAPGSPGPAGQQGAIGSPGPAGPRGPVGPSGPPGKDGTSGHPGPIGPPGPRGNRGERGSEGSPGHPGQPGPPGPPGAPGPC

## Ae. aegypti saliva (collected by oil-induced salivation)
[1]
  Response (RU): 556 RU
[2]
  Response (RU): 348 RU

## recombinant Aegyptin (mature protein with C-terminal 6xHis tag, expressed in 293-F cells) (from UniProt O01949 20-273)
[3]
  Kd: 5.1 µM
  Kd2: 0.0289 s⁻¹
[4]
  kon: 206000 M⁻¹ s⁻¹
[5]
  koff: 1.19 s⁻¹
[6]
  Kd: 5.01 µM

## Aegyptin C-terminus-2 (137 aa), truncated form without GEEDA repeats (from UniProt O01949 137-273)
[7]
  collagen-induced platelet aggregation: 3 µM
